Assay results as given in US20220396635A1 (UNIVERSIT T STUTTGART, published 2022).

T1: CEA (UniProt P06731 35-685)
T1 sequence (looked up): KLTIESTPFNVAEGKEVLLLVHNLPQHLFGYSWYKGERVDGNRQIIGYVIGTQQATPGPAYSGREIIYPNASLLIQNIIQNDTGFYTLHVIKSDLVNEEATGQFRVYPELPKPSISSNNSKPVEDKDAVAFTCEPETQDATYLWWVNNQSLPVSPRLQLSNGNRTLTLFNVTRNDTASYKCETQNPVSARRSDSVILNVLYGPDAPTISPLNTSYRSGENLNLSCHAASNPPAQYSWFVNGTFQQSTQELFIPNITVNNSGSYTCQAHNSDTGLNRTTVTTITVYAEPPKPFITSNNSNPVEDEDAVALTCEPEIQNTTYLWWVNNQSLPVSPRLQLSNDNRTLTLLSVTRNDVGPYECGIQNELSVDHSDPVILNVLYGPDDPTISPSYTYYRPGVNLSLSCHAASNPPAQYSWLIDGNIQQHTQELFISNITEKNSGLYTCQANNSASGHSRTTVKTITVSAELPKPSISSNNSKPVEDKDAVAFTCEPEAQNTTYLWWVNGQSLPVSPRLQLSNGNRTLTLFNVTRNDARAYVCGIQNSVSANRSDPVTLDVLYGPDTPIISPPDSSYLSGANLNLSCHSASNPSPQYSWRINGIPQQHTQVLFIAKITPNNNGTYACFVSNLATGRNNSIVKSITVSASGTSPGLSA

B1: scDb/scFv-Fc (2-1)+1, trivalent bispecific anti-CEAxanti-CD3 (bispecific antibody)
chain 1: QVQLVQSGAEVKKPGSSVKVSCKASGGTFSGYTMNWVRQAPGQGLEWMGLINPYKGVSTYNGKFKDRVTITADKSTSTAYMELSSLRSEDTAVYYCARSGYYGDSDWYFDVWGQGTLVTVSSGGGGSDIELTQSPAIMSASPGEKVTITCSASSSVSYMHWFQQKPGTSPKLWIYSTSNLASGVPARFSGSGSGTSYSLTISRMEAEDAATYYCQQRSSYPLTFGAGTKLELKRGGGGSGGGGSGGGGSQVKLQQSGAELVRSGTSVKLSCTASGFNIKDSYMHWLRQGPEQGLEWIGWIDPENGDTEYAPKFQGKATFTTDTSSNTAYLQLSSLTSEDTAVYYCNEGTPTGPYYFDYWGQGTTVTVSSGGGGSDIQMTQSPSSLSASVGDRVTITCRASQDIRNYLNWYQQKPGKAPKLLIYYTSRLHSGVPSRFSGSGSGTDFTFTISSLQPEDIATYYCQQGNTLPWTFGQGTKLEIKRAAADKTHTCPPCPAPPVAGPSVFLFPPKPKDTLMISRTPEVTCVVVDVSHEDPEVKFNWYVDGVEVHNAKTKPREEQYNSTYRVVSVLTVLHQDWLNGKEYKCKVSNKGLPSSIEKTISKAKGQPREPQVCTLPPSRDELTKNQVSLSCAVKGFYPSDIAVEWESNGQPENNYKTTPPVLDSDGSFFLVSKLTVDKSRWQQGNVFSCSVMHEALHNHYTQKSLSLSPGK
chain 2: QVKLQQSGAELVRSGTSVKLSCTASGFNIKDSYMHWLRQGPEQGLEWIGWIDPENGDTEYAPKFQGKATFTTDTSSNTAYLQLSSLTSEDTAVYYCNEGTPTGPYYFDYWGQGTTVTVSSGGGGSGGGGSGGGGSDIELTQSPAIMSASPGEKVTITCSASSSVSYMHWFQQKPGTSPKLWIYSTSNLASGVPARFSGSGSGTSYSLTISRMEAEDAATYYCQQRSSYPLTFGAGTKLELKRAAADKTHTCPPCPAPPVAGPSVFLFPPKPKDTLMISRTPEVTCVVVDVSHEDPEVKFNWYVDGVEVHNAKTKPREEQYNSTYRVVSVLTVLHQDWLNGKEYKCKVSNKGLPSSIEKTISKAKGQPREPQVYTLPPCRDELTKNQVSLWCLVKGFYPSDIAVEWESNGQPENNYKTTPPVLDSDGSFFLYSKLTVDKSRWQQGNVFSCSVMHEALHNHYTQKSLSLSPGK
notes: also called scDbhuU3xCEA-Fc(hole)Δab + scFvCEA-Fc(knob)Δab
B2: scDb/Fab-Fc (1-2)+1, trivalent bispecific anti-CEAxanti-CD3 (bispecific antibody, human IgG1, kappa)
chain: QVKLQQSGAELVRSGTSVKLSCTASGFNIKDSYMHWLRQGPEQGLEWIGWIDPENGDTEYAPKFQGKATFTTDTSSNTAYLQLSSLTSEDTAVYYCNEGTPTGPYYFDYWGQGTTVTVSSGGGGSDIQMTQSPSSLSASVGDRVTITCRASQDIRNYLNWYQQKPGKAPKLLIYYTSRLHSGVPSRFSGSGSGTDFTFTISSLQPEDIATYYCQQGNTLPWTFGQGTKLEIKRGGGGSGGGGSGGGGSQVQLVQSGAEVKKPGSSVKVSCKASGGTFSGYTMNWVRQAPGQGLEWMGLINPYKGVSTYNGKFKDRVTITADKSTSTAYMELSSLRSEDTAVYYCARSGYYGDSDWYFDVWGQGTLVTVSSGGGGSDIELTQSPAIMSASPGEKVTITCSASSSVSYMHWFQQKPGTSPKLWIYSTSNLASGVPARFSGSGSGTSYSLTISRMEAEDAATYYCQQRSSYPLTFGAGTKLELKRAAADKTHTCPPCPAPPVAGPSVFLFPPKPKDTLMISRTPEVTCVVVDVSHEDPEVKFNWYVDGVEVHNAKTKPREEQYNSTYRVVSVLTVLHQDWLNGKEYKCKVSNKGLPSSIEKTISKAKGQPREPQVCTLPPSRDELTKNQVSLSCAVKGFYPSDIAVEWESNGQPENNYKTTPPVLDSDGSFFLVSKLTVDKSRWQQGNVFSCSVMHEALHNHYTQKSLSLSPGK
heavy: QVKLQQSGAELVRSGTSVKLSCTASGFNIKDSYMHWLRQGPEQGLEWIGWIDPENGDTEYAPKFQGKATFTTDTSSNTAYLQLSSLTSEDTAVYYCNEGTPTGPYYFDYWGQGTTVTVSSASTKGPSVFPLAPSSKSTSGGTAALGCLVKDYFPEPVTVSWNSGALTSGVHTFPAVLQSSGLYSLSSVVTVPSSSLGTQTYICNVNHKPSNTKVDKKVEPKSCDKTHTCPPCPAPPVAGPSVFLFPPKPKDTLMISRTPEVTCVVVDVSHEDPEVKFNWYVDGVEVHNAKTKPREEQYNSTYRVVSVLTVLHQDWLNGKEYKCKVSNKGLPSSIEKTISKAKGQPREPQVYTLPPCRDELTKNQVSLWCLVKGFYPSDIAVEWESNGQPENNYKTTPPVLDSDGSFFLYSKLTVDKSRWQQGNVFSCSVMHEALHNHYTQKSLSLSPGK
light: DIELTQSPAIMSASPGEKVTITCSASSSVSYMHWFQQKPGTSPKLWIYSTSNLASGVPARFSGSGSGTSYSLTISRMEAEDAATYYCQQRSSYPLTFGAGTKLELKRRTVAAPSVFIFPPSDEQLKSGTASVVCLLNNFYPREAKVQWKVDNALQSGNSQESVTEQDSKDSTYSLSSTLTLSKADYEKHKVYACEVTHQGLSSPVTKSFNRGEC
notes: also called scDbCEAxhuU3-Fc(hole)Δab + VHCEA-CH1-Fc(knob)Δab + VLCEA-CLκ
B3: scDb/Fab-Fc (2-1)+1, trivalent bispecific anti-CEAxanti-CD3 (bispecific antibody, human IgG1, kappa)
chain: B1 chain 1
heavy: B2 heavy
light: B2 light
notes: also called scDbhuU3xCEA-Fc(hole)Δab + VHCEA-CH1-Fc(knob)Δab + VLCEA-CLκ

What was measured:
[1] = biological target: T1, CEA; test: cell-based or functional assay
[2] = biological target: T2, CD3 (UniProt P07766 23-207); test: flow cytometry, serial dilution on Jurkat cells (CD3-expressing), PE anti-human Fc detection
T2 construct: whole, on cells; on cells it stands in the TCR/CD3 complex; also called CD3 on Jurkat cells
Protocol: (§1) Binding of trivalent, bispecific fusion proteins to CEA-expressing (LIM1215) and CD3-expressing (Jurkat) cell lines was analyzed by flow cytometry. 2×10⁵ cells/well were incubated with a serial dilution of trivalent, bispecific antibodies for 1 h at 4° C. followed by detection using a PE-conjugated anti-human Fc antibody (Jackson ImmunoResearch Laboratories Inc). […] Regarding the CEA-expressing cell line LIM1215, the trivalent, bispecific antibodies bound with EC₅₀ values in the nanomolar range (FIG. 16A) (Table 9).

[3] = biological target: T1, CEA; test: cell-based or functional assay; remark: listed apart in the source
[4] = biological target: T1, CEA; test: flow cytometry, serial dilution on LIM1215 cells (CEA-expressing), PE anti-human Fc detection
Protocol: as §1

Binder | EC50 of PBMC cytotoxicity on LIM1215 cells, E:T 10:1 [1] [nM] | EC50 [2] [nM] | EC50 of IL-2 release, PBMCs co-cultured with LIM1215 cells [3] [nM] | EC50 [4] [nM]
B1 | 0.3 | 7.9 | 1.4 | 1.7
B2 | 0.4 | 5.7 | 0.5 | 2.5
B3 | 1.2 | 6.1 | 3.5 | 2.1
